Test results reported in paper PMC9482650, “Quantitative fragmentomics allow affinity mapping of interactomes” (Nature Communications, 2022).
Substitutions are numbered along the chain they refer to.

Key:
Assay in all cases: holdup assay
Parameters in all cases: key: below the threshold = too weak to quantify, mostly under pKd 3.1 to 4
DLG1_3, Q12959 = biological target: DLG1_3, Q12959
LAP2, Q96RT1 = biological target: LAP2, Q96RT1
GRIP1_7, Q9Y3R0 = biological target: T1, GRIP1_7, Q9Y3R0
T1 sequence (Q9Y3R0 999-1096, limits assumed, looked up): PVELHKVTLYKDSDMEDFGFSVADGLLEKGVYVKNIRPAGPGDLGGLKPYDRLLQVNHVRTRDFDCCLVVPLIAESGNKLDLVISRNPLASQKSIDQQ

GRIP2_3, Q9C0E4 = biological target: GRIP2_3, Q9C0E4
MPP7, Q5T2T1 = biological target: T2, MPP7, Q5T2T1
T2 sequence (Q5T2T1 134-230, limits assumed, looked up): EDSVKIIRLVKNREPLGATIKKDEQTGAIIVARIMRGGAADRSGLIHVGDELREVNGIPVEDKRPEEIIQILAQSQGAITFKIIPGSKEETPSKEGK

SCRIB_2, Q14160 = biological target: SCRIB_2, Q14160
HTRA4, P83105 = biological target: T3, HTRA4, P83105
T3 sequence (P83105 378-476, limits assumed, looked up): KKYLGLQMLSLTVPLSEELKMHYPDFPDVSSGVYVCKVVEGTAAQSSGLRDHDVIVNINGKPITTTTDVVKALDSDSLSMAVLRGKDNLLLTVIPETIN

DLG1_1, Q12959 = biological target: DLG1_1, Q12959
MAGI2_6, Q86UL8 = biological target: MAGI2_6, Q86UL8
PCLO, Q9Y6V0 = biological target: T4, PCLO, Q9Y6V0
T4 sequence (Q9Y6V0 4491-4600, limits assumed, looked up): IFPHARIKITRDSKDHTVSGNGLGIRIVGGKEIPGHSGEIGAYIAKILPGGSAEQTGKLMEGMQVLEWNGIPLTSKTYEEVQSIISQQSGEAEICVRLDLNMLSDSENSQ

MPP2, Q14168 = biological target: T5, MPP2, Q14168
T5 sequence (Q14168 180-250, limits assumed, looked up): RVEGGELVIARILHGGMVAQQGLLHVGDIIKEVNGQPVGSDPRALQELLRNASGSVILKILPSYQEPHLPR

GRIP2_4, Q9C0E4 = biological target: GRIP2_4, Q9C0E4
APBA1_2, Q02410 = biological target: T6, APBA1_2, Q02410
T6 sequence (Q02410 742-832, limits assumed, looked up): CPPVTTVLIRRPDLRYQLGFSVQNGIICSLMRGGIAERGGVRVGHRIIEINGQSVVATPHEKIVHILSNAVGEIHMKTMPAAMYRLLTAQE

MPP6, Q9NZW5 = biological target: T7, MPP6, Q9NZW5
T7 sequence (Q9NZW5 125-219, limits assumed, looked up): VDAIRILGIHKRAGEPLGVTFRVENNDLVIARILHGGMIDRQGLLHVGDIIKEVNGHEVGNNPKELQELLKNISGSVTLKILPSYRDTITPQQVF

LNX1_1, Q8TBB1 = biological target: LNX1_1, Q8TBB1
GRIP2_5, Q9C0E4 = biological target: GRIP2_5, Q9C0E4
MPDZ_5, O75970 = biological target: T8, MPDZ_5, O75970
T8 sequence (O75970 695-796, limits assumed, looked up): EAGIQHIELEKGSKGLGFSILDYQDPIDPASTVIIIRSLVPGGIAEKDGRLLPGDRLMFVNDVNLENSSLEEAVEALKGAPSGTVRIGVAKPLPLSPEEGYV

NHERF2_2, Q15599 = biological target: NHERF2_2, Q15599
IL16_1, Q14005 = biological target: IL16_1, Q14005
NHERF4_2, Q86UT5 = biological target: NHERF4_2, Q86UT5
MPDZ_10, O75970 = biological target: T9, MPDZ_10, O75970
T9 sequence (O75970 1624-1722, limits assumed, looked up): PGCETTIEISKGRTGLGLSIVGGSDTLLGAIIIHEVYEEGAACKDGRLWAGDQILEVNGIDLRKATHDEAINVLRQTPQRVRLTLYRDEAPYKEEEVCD

APBA2_2, Q99767 = biological target: T10, APBA2_2, Q99767
T10 sequence (Q99767 654-744, limits assumed, looked up): T6 sequence (Q02410 742-832, limits assumed, looked up) with R10K, R15K, P59A, H65Q, I66A, A70S, Y84F, A89G

SNTG2, Q9NY99 = biological target: T11, SNTG2, Q9NY99
T11 sequence (Q9NY99 68-166, limits assumed, looked up): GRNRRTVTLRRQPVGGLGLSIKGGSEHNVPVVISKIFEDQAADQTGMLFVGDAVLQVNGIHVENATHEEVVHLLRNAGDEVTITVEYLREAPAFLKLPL

MAGI2_3, Q86UL8 = biological target: MAGI2_3, Q86UL8
MAGI3_2, Q5TCQ9 = biological target: MAGI3_2, Q5TCQ9
ARHGAP21, Q5T5U3 = biological target: T12, ARHGAP21, Q5T5U3
T12 sequence (Q5T5U3 45-169, limits assumed, looked up): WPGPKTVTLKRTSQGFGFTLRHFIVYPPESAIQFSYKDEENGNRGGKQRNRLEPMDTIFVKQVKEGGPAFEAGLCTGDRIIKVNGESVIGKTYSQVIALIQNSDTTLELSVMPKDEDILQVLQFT

[1] = plain residues with an end cap or a label only (N-terminal biotin on a linker: ado-ado)
[2] = modified: phospho on T at position -2 from the C-terminal residue
[3] = modified: phospho on T at position -1 from the C-terminal residue

NHERF2_2, Q15599, sequence (Q15599 142-238): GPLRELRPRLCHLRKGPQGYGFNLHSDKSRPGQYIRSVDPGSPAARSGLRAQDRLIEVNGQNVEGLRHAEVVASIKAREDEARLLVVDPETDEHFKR
IL16_1, Q14005, sequence (Q14005 210-306): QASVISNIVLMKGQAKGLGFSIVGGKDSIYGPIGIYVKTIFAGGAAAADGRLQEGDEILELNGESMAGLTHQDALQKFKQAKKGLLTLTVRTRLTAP
LNX1_1, Q8TBB1, sequence (Q8TBB1 261-371): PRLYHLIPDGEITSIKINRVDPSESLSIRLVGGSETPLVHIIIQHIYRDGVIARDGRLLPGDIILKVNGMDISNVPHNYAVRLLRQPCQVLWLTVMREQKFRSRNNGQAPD
MAGI2_6, Q86UL8, sequence (Q86UL8 1141-1229): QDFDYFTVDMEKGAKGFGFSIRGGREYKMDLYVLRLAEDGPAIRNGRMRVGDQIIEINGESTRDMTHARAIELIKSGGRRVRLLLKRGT
LAP2, Q96RT1, sequence (Q96RT1 other isoform, or with tags, fused parts or gaps): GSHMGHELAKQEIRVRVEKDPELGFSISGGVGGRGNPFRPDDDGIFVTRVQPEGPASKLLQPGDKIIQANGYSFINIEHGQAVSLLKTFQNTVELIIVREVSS
MAGI2_3, Q86UL8, sequence (Q86UL8 600-682): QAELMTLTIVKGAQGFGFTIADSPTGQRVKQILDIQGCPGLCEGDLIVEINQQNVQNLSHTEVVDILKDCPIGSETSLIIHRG
SCRIB_2, Q14160, sequence (Q14160 857-960): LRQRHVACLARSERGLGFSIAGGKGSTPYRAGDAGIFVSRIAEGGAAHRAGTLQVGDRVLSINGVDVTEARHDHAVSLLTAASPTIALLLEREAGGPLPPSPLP
GRIP2_5, Q9C0E4, sequence (Q9C0E4 544-642): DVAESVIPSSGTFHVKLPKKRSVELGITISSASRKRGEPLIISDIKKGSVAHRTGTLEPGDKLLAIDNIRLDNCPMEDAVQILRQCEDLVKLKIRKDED
MAGI3_2, Q5TCQ9, sequence (Q5TCQ9 398-503): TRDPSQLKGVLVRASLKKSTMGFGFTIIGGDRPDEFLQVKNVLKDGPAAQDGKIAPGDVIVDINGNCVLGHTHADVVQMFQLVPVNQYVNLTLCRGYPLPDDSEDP
GRIP2_3, Q9C0E4, sequence (Q9C0E4 238-339): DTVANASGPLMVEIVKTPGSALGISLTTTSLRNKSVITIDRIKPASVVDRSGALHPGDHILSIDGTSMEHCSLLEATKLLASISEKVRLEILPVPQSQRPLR
NHERF4_2, Q86UT5, sequence (Q86UT5 220-308): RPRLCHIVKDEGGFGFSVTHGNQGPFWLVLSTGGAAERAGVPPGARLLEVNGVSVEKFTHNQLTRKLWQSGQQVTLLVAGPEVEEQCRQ
GRIP2_4, Q9C0E4, sequence (Q9C0E4 446-548): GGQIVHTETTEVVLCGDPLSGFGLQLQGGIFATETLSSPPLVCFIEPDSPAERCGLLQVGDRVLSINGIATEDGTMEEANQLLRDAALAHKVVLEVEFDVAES

B1: AKIP1, Q9NQ31 (peptide)
chain: GQSVDLVFPV
pKd (DLG1_3, Q12959; [1]): below the threshold | pKd (LAP2, Q96RT1; [1]): below the threshold | pKd (GRIP1_7, Q9Y3R0; [1]): below the threshold | pKd (GRIP2_3, Q9C0E4; [1]): below the threshold | pKd (MPP7, Q5T2T1; [1]): below the threshold | pKd (SCRIB_2, Q14160; [1]): below the threshold | pKd (HTRA4, P83105; [1]): below the threshold | pKd (DLG1_1, Q12959; [1]): below the threshold | pKd (MAGI2_6, Q86UL8; [1]): below the threshold | pKd (PCLO, Q9Y6V0; [1]): below the threshold | pKd (MPP2, Q14168; [1]): below the threshold | pKd (GRIP2_4, Q9C0E4; [1]): below the threshold | pKd (APBA1_2, Q02410; [1]): 3.85 | pKd (MPP6, Q9NZW5; [1]): below the threshold | pKd (LNX1_1, Q8TBB1; [1]): 3.66 | pKd (GRIP2_5, Q9C0E4; [1]): below the threshold | pKd (MPDZ_5, O75970; [1]): below the threshold | pKd (NHERF2_2, Q15599; [1]): below the threshold | pKd (IL16_1, Q14005; [1]): below the threshold | pKd (NHERF4_2, Q86UT5; [1]): below the threshold | pKd (MPDZ_10, O75970; [1]): below the threshold | pKd (APBA2_2, Q99767; [1]): below the threshold | pKd (SNTG2, Q9NY99; [1]): below the threshold | pKd (MAGI2_3, Q86UL8; [1]): below the threshold | pKd (MAGI3_2, Q5TCQ9; [1]): below the threshold | pKd (ARHGAP21, Q5T5U3; [1]): 4.16

B2: RPS6KA1_-2P, Q15418 (peptide)
chain: RRVRKLPSTTL
pKd (DLG1_3, Q12959; [2]): below the threshold | pKd (LAP2, Q96RT1; [2]): below the threshold | pKd (GRIP1_7, Q9Y3R0; [2]): 3.63 | pKd (GRIP2_3, Q9C0E4; [2]): below the threshold | pKd (MPP7, Q5T2T1; [2]): below the threshold | pKd (SCRIB_2, Q14160; [2]): below the threshold | pKd (HTRA4, P83105; [2]): below the threshold | pKd (DLG1_1, Q12959; [2]): 3.58 | pKd (MAGI2_6, Q86UL8; [2]): below the threshold | pKd (PCLO, Q9Y6V0; [2]): below the threshold | pKd (MPP2, Q14168; [2]): below the threshold | pKd (GRIP2_4, Q9C0E4; [2]): below the threshold | pKd (APBA1_2, Q02410; [2]): below the threshold | pKd (MPP6, Q9NZW5; [2]): below the threshold | pKd (LNX1_1, Q8TBB1; [2]): below the threshold | pKd (GRIP2_5, Q9C0E4; [2]): below the threshold | pKd (MPDZ_5, O75970; [2]): below the threshold | pKd (NHERF2_2, Q15599; [2]): below the threshold | pKd (IL16_1, Q14005; [2]): below the threshold | pKd (NHERF4_2, Q86UT5; [2]): below the threshold | pKd (MPDZ_10, O75970; [2]): below the threshold | pKd (APBA2_2, Q99767; [2]): below the threshold | pKd (SNTG2, Q9NY99; [2]): below the threshold | pKd (MAGI2_3, Q86UL8; [2]): below the threshold | pKd (MAGI3_2, Q5TCQ9; [2]): below the threshold | pKd (ARHGAP21, Q5T5U3; [2]): below the threshold

B3: SH2D3C, Q8N5H7 (peptide)
chain: LEPAVRSSEL
pKd (DLG1_3, Q12959; [1]): below the threshold | pKd (LAP2, Q96RT1; [1]): below the threshold | pKd (GRIP1_7, Q9Y3R0; [1]): below the threshold | pKd (GRIP2_3, Q9C0E4; [1]): below the threshold | pKd (MPP7, Q5T2T1; [1]): below the threshold | pKd (SCRIB_2, Q14160; [1]): below the threshold | pKd (HTRA4, P83105; [1]): 3.85 | pKd (DLG1_1, Q12959; [1]): below the threshold | pKd (MAGI2_6, Q86UL8; [1]): 3.96 | pKd (PCLO, Q9Y6V0; [1]): below the threshold | pKd (MPP2, Q14168; [1]): below the threshold | pKd (GRIP2_4, Q9C0E4; [1]): below the threshold | pKd (APBA1_2, Q02410; [1]): below the threshold | pKd (MPP6, Q9NZW5; [1]): below the threshold | pKd (LNX1_1, Q8TBB1; [1]): 3.67 | pKd (GRIP2_5, Q9C0E4; [1]): below the threshold | pKd (MPDZ_5, O75970; [1]): below the threshold | pKd (NHERF2_2, Q15599; [1]): 4.29 | pKd (IL16_1, Q14005; [1]): below the threshold | pKd (NHERF4_2, Q86UT5; [1]): below the threshold | pKd (MPDZ_10, O75970; [1]): below the threshold | pKd (APBA2_2, Q99767; [1]): below the threshold | pKd (SNTG2, Q9NY99; [1]): below the threshold | pKd (MAGI2_3, Q86UL8; [1]): below the threshold | pKd (MAGI3_2, Q5TCQ9; [1]): below the threshold | pKd (ARHGAP21, Q5T5U3; [1]): 3.72

B4: RPS6KA1_-1P, Q15418 (peptide)
chain: RRVRKLPSTTL
pKd (DLG1_3, Q12959; [3]): 3.7 | pKd (LAP2, Q96RT1; [3]): below the threshold | pKd (GRIP1_7, Q9Y3R0; [3]): 3.48 | pKd (GRIP2_3, Q9C0E4; [3]): below the threshold | pKd (MPP7, Q5T2T1; [3]): 3.35 | pKd (SCRIB_2, Q14160; [3]): 3.61 | pKd (HTRA4, P83105; [3]): 3.48 | pKd (DLG1_1, Q12959; [3]): 3.82 | pKd (MAGI2_6, Q86UL8; [3]): 3.83 | pKd (PCLO, Q9Y6V0; [3]): below the threshold | pKd (MPP2, Q14168; [3]): below the threshold | pKd (GRIP2_4, Q9C0E4; [3]): below the threshold | pKd (APBA1_2, Q02410; [3]): below the threshold | pKd (MPP6, Q9NZW5; [3]): below the threshold | pKd (LNX1_1, Q8TBB1; [3]): 4.63 | pKd (GRIP2_5, Q9C0E4; [3]): below the threshold | pKd (MPDZ_5, O75970; [3]): 3.5 | pKd (NHERF2_2, Q15599; [3]): 4.02 | pKd (IL16_1, Q14005; [3]): 3.46 | pKd (NHERF4_2, Q86UT5; [3]): below the threshold | pKd (MPDZ_10, O75970; [3]): below the threshold | pKd (APBA2_2, Q99767; [3]): below the threshold | pKd (SNTG2, Q9NY99; [3]): 4.16 | pKd (MAGI2_3, Q86UL8; [3]): below the threshold | pKd (MAGI3_2, Q5TCQ9; [3]): 3.94 | pKd (ARHGAP21, Q5T5U3; [3]): below the threshold
